B1: Azoarcus group I ribozyme (parent)
chain: GUGCCUUGCGCCGGGAAACCACGCAAGGGAUGGUGUCAAAUUCGGCGAAACCUAAGCGCCCGCCCGGGCGUAUGGCAACGCCGAGCCAAGCUUCGGCGCCUGCGCCGAUGAAGGUGUAGAGACUAGACGGCACCCACCUAAGGCAAACGCUAUGGUGAAGGCAUAGUCCAGGGAGUGGCGAAAGUCACACAAACCGG

Variants of B1 are the subject of the data set. Description: reverse-splicing fitness (ratio to wild type); higher = more active; in vitro selection; Mg2+ level not given. The procedure, abridged:
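An in vitro group I ribozyme library with randomized positions was T7-transcribed and gel-purified. In triplicate, 10 pmol RNA in EPPS pH 7.5 was reacted with 50 pmoles of a 30-nt RNA substrate for 1 h at 37 °C across several added MgCl2 levels (1–48 mM), then stopped with EDTA. Products were reverse transcribed from a substrate-complementary primer, PCR-amplified and sequenced (HiSeq 4000). Fitness is a variant's read proportion after selection over that before, normalised to wild type.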
On to GUGCCUUGCGCCGGGAAACCACGCAAGGGAUGGUGUCAAAUUCGGCGAAACCUAAGCGCCCGCCCGGGCGUAUGGCAACGCUGAGCCAAGCUUCGGCGCCUGCGCCGAUGUAGGUGUAGGGACUAGACGGCACCCACCUAAGGCCAACGUUAUGGUGAAGGCAUAGUCCAGGGAGUGGCGAAAGUCACACAAACCGG, for which the reverse-splicing fitness turned out to be 0.0086.
With GUGCCUUGCGCCGGGAAACCACGCAAGGGAUGGUGUCAAAUUCGGCGAAACCUAAGCGCCCGCCCGGGCGUAUGGCAACGCUGAGCCAAGCUUCGGCGCCUGCGCCGAUGUAGGUGUAGGGACUAGACGGCACCCACCUAAGGCCAACGGUAUGGUGAAGGCAUAGUCGAGGGAGGGGCGAAAGUCACACAAACCGG the figure was 0.00424.
With GUGCCUUGCGCCGGGAAACCACGCAAGGGAUGGUGUCAAAUUCGGCGAAACCUAAGCGCCCGCCCGGGCGUAUGGCAACGCUGAGCCAAGCUUCGGCGCCUGCGCCGAUGUAGGUGUAGGGACUAGACGGCACCCACCUAAGGCCAACGGUAUGGUGAAGGCAUAGUCUAGGGAGUGGCGAAAGUCACACAAACCGG the figure was 0.00686; with GUGCCUUGCGCCGGGAAACCACGCAAGGGAUGGUGUCAAAUUCGGCGAAACCUAAGCGCCCGCCCGGGCGUAUGGCAACGCUGAGCCAAGCUUCGGCGCCUGCGCCGAUGUAGGUGUAGGGACUAGACGGCACCCACCUAAGGCCAACGGUAUGGUGAAGGCAUAGUCUAGGGAGCGGCGAAAGUCACACAAACCGG, 0.0113.
With GUGCCUUGCGCCGGGAAACCACGCAAGGGAUGGUGUCAAAUUCGGCGAAACCUAAGCGCCCGCCCGGGCGUAUGGCAACGCUGAGCCAAGCUUCGGCGCCUGCGCCGAUGUAGGUGUAGGGACUAGACGGCACCCACCUAAGGCCAACGGUAUGGUGAAGGCAUAGUCUAGGGAGAGGCGAAAGUCACACAAACCGG the figure was 0.0142.
Regarding GUGCCUUGCGCCGGGAAACCACGCAAGGGAUGGUGUCAAAUUCGGCGAAACCUAAGCGCCCGCCCGGGCGUAUGGCAACGCUGAGCCAAGCUUCGGCGCCUGCGCCGAUGUAGGUGUAGGGACUAGACGGCACCCACCUAAGGCCAACGGUAUGGUGAAGGCAUAGUCUAGGGAGGGGCGAAAGUCACACAAACCGG, the reverse-splicing fitness came out at 0.00495.
With GUGCCUUGCGCCGGGAAACCACGCAAGGGAUGGUGUCAAAUUCGGCGAAACCUAAGCGCCCGCCCGGGCGUAUGGCAACGCUGAGCCAAGCUUCGGCGCCUGCGCCGAUGUAGGUGUAGGGACUAGACGGCACCCACCUAAGGCCAACGUUAUGGUGAAGGCAUAGUCAAGGGAGCGGCGAAAGUCACACAAACCGG the figure was 0.00544; with GUGCCUUGCGCCGGGAAACCACGCAAGGGAUGGUGUCAAAUUCGGCGAAACCUAAGCGCCCGCCCGGGCGUAUGGCAACGCUGAGCCAAGCUUCGGCGCCUGCGCCGAUGUAGGUGUAGGGACUAGACGGCACCCACCUAAGGCCAACGUUAUGGUGAAGGCAUAGUCAAGGGAGGGGCGAAAGUCACACAAACCGG, 0.00482.
With GUGCCUUGCGCCGGGAAACCACGCAAGGGAUGGUGUCAAAUUCGGCGAAACCUAAGCGCCCGCCCGGGCGUAUGGCAACGCUGAGCCAAGCUUCGGCGCCUGCGCCGAUGUAGGUGUAGGGACUAGACGGCACCCACCUAAGGCCAACGUUAUGGUGAAGGCAUAGUCAAGGGAGAGGCGAAAGUCACACAAACCGG the figure was 0.0102; with GUGCCUUGCGCCGGGAAACCACGCAAGGGAUGGUGUCAAAUUCGGCGAAACCUAAGCGCCCGCCCGGGCGUAUGGCAACGCUGAGCCAAGCUUCGGCGCCUGCGCCGAUGUAGGUGUAGGGACUAGACGGCACCCACCUAAGGCCAACGCUAUGGUGAAGGCAUAGUCGAGGGAGAGGCGAAAGUCACACAAACCGG, 0.0262.
The result for GUGCCUUGCGCCGGGAAACCACGCAAGGGAUGGUGUCAAAUUCGGCGAAACCUAAGCGCCCGCCCGGGCGUAUGGCAACGCUGAGCCAAGCUUCGGCGCCUGCGCCGAUGUAGGUGUAGGGACUAGACGGCACCCACCUAAGGCCAACGCUAUGGUGAAGGCAUAGUCGAGGGAGUGGCGAAAGUCACACAAACCGG reads 0.00962; that for GUGCCUUGCGCCGGGAAACCACGCAAGGGAUGGUGUCAAAUUCGGCGAAACCUAAGCGCCCGCCCGGGCGUAUGGCAACGCUGAGCCAAGCUUCGGCGCCUGCGCCGAUGUAGGUGUAGGGACUAGACGGCACCCACCUAAGGCCAACGCUAUGGUGAAGGCAUAGUCAAGGGAGUGGCGAAAGUCACACAAACCGG, 0.007.
Take GUGCCUUGCGCCGGGAAACCACGCAAGGGAUGGUGUCAAAUUCGGCGAAACCUAAGCGCCCGCCCGGGCGUAUGGCAACGCUGAGCCAAGCUUCGGCGCCUGCGCCGAUGUAGGUGUAGGGACUAGACGGCACCCACCUAAGGCCAACGUUAUGGUGAAGGCAUAGUCGAGGGAGGGGCGAAAGUCACACAAACCGG: the reverse-splicing fitness was determined as 0.00484.
On to GUGCCUUGCGCCGGGAAACCACGCAAGGGAUGGUGUCAAAUUCGGCGAAACCUAAGCGCCCGCCCGGGCGUAUGGCAACGCUGAGCCAAGCUUCGGCGCCUGCGCCGAUGUAGGUGUAGGGACUAGACGGCACCCACCUAAGGCCAACGUUAUGGUGAAGGCAUAGUCGAGGGAGCGGCGAAAGUCACACAAACCGG, for which the reverse-splicing fitness amounted to 0.0111.
The result for GUGCCUUGCGCCGGGAAACCACGCAAGGGAUGGUGUCAAAUUCGGCGAAACCUAAGCGCCCGCCCGGGCGUAUGGCAACGCUGAGCCAAGCUUCGGCGCCUGCGCCGAUGUAGGUGUAGGGACUAGACGGCACCCACCUAAGGCCAACGUUAUGGUGAAGGCAUAGUCGAGGGAGAGGCGAAAGUCACACAAACCGG reads 0.0216.

The values are drawn from the RNAGym collection of RNA variant scans (doi:10.1093/molbev/msab373).
